Three substances from patent publication US20230056821A1 can be followed below.

Test [1] has as its target VEGF-A165 (human) (UniProt P15692). As to the kind of experiment: cell-based or functional assay.
For test [2] the target is unchanged. As to the kind of experiment: SPR, Biacore T200.
In another test the target is T1, PlGF (UniProt P49763).
T1 sequence (looked up): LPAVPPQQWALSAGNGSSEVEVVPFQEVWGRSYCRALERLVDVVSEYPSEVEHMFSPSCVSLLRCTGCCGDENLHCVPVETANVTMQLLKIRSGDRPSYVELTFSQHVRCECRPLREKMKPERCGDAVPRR
As to the kind of experiment: SPR, Biacore T200. A general note: In SPR one partner is held on a chip, and binding of the other changes the refractive index at the surface.

For another test, the target named is VEGF-A121 (UniProt P15692). As to the kind of experiment: SPR, Biacore T200.
Sequence of VEGF-A121 (P15692 other isoform, or with tags, fused parts or gaps limits assumed): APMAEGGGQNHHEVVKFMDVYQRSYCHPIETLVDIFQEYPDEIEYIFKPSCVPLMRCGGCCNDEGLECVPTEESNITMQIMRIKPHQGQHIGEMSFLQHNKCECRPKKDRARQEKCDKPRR
In test [3] the target is C3b (UniProt P01024). Put plainly: cell-based or functional assay.
The target in test [4] is C4b (human) (UniProt P0C0L4). As to the kind of experiment: cell-based or functional assay.
Sequence of C4b (human) (P0C0L4 20-1744): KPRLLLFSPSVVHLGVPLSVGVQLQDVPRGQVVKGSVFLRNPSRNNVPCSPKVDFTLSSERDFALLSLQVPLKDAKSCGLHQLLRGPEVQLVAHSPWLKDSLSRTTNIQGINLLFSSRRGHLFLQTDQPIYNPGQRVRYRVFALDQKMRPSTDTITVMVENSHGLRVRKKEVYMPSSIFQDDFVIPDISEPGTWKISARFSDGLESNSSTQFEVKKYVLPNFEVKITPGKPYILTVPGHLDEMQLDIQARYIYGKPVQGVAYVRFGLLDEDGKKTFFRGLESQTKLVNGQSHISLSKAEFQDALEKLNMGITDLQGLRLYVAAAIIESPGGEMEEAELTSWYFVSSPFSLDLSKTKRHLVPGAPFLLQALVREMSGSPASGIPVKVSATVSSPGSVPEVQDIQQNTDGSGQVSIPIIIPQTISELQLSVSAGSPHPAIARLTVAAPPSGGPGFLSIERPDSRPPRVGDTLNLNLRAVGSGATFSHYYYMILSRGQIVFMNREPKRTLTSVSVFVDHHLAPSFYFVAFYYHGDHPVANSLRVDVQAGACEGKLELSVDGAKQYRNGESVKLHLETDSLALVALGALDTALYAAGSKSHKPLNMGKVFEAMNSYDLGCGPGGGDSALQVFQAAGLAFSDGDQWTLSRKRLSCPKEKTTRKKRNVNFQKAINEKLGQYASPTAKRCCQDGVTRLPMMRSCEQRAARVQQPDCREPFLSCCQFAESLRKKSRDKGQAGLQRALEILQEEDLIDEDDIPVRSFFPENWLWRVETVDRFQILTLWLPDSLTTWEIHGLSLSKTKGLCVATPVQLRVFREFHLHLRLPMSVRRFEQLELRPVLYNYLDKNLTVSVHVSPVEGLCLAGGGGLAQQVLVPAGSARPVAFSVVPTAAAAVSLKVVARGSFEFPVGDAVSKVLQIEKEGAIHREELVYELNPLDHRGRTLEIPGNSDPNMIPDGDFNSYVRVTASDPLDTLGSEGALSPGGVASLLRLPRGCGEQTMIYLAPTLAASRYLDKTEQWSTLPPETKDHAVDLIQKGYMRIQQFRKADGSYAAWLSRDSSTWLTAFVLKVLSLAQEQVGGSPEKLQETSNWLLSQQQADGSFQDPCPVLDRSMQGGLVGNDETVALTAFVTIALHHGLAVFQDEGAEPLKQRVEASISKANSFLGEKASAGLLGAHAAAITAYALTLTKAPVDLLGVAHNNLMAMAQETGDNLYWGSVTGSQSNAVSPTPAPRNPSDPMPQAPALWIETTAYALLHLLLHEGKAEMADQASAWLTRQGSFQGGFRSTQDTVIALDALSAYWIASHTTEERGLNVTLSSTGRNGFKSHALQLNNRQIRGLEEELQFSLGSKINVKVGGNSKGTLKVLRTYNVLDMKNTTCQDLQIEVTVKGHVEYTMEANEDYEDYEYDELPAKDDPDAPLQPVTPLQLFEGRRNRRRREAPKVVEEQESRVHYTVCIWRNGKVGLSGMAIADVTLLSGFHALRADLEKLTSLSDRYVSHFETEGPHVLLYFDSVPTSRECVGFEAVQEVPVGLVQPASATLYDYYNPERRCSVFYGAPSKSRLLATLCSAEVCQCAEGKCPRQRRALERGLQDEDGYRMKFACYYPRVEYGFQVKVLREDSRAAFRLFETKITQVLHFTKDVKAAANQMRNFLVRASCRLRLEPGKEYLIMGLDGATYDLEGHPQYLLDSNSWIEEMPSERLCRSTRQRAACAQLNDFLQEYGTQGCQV
Test [5] concerns the target C3b (UniProt P01024). As to the kind of experiment: SPR, Biacore T200.
The target in test [6] is C4b (human) (UniProt P0C0L4). Put plainly: SPR, Biacore T200.

Sequence of Aflibercept injection (Fc fusion) (chain): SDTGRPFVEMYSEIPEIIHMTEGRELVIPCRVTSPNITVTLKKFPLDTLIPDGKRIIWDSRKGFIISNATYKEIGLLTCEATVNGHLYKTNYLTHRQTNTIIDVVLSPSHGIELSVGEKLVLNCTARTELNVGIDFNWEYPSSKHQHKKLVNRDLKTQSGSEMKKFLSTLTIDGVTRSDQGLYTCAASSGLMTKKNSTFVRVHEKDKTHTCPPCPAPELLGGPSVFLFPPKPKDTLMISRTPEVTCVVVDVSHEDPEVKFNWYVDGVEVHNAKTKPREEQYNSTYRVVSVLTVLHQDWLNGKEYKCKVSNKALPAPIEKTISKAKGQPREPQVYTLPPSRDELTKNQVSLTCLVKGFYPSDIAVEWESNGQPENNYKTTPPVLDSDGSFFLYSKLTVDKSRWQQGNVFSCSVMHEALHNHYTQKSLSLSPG
Sequence of VEGF-A165 (human) (P15692 other isoform, or with tags, fused parts or gaps limits assumed): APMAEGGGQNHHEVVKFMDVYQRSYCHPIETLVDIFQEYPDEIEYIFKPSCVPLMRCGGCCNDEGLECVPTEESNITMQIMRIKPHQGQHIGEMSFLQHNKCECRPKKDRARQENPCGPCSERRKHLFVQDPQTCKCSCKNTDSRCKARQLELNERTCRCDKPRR

For the substance Aflibercept injection (Fc fusion), in the test with VEGF-A165 (human) [1], the EC50 (ng/mL), inhibition of VEGF-A-induced HUVEC proliferation (CCK-8) was 41 ng/mL and the EC50, inhibition of VEGF-A-induced HUVEC proliferation (CCK-8) was 0.357 nM. In addition, in the test with VEGF-A165 (human) [2], the Kd – broadly, a measure of binding affinity in units of concentration – is 0.00387 nM; the koff (in general, a measure of how fast the partners let go of each other) worked out at 7.93e-05 s⁻¹; the kon (in general, the second-order rate constant of association) was determined as 2.05e+07 M⁻¹ s⁻¹. Moreover, in the test with PlGF, the Kd was found to be 1.16 nM, the koff stood at 0.00384 s⁻¹ and the kon amounted to 3.32e+06 M⁻¹ s⁻¹. Also, in the test with VEGF-A121, the Kd was determined as 0.00778 nM, the koff came out at 4.25e-05 s⁻¹ and the kon was found to be 5.46e+06 M⁻¹ s⁻¹.

With IBI302 (Fc fusion), in the test with C3b [3], the EC50, inhibition of hemolysis of rabbit red blood cells induced by human serum complement (alternative pathway) worked out at 14.6 nM and the EC50, inhibition of hemolysis of sensitized sheep red blood cells induced by human serum complement (classical pathway) was determined as 2.51 nM. Further, in the test with C4b (human) [4], the EC50, inhibition of hemolysis of rabbit red blood cells induced by human serum complement (alternative pathway) was determined as 14.6 nM and the EC50, inhibition of hemolysis of sensitized sheep red blood cells induced by human serum complement (classical pathway) was found to be 2.51 nM. Besides, in the test with C3b [5], the dissociation constant (Kd) amounted to 9.96 nM, the koff is 0.00287 s⁻¹ and the kon came out at 288000 M⁻¹ s⁻¹. Further, in the test with C4b (human) [6], the Kd was determined as 7.75 nM, the koff is 0.00335 s⁻¹ and the kon came to 432000 M⁻¹ s⁻¹.

Consider “Human complement receptor type 1 (from UniProt P17927 42-1971)”, for which, in the test with C3b [5], the Kd turned out to be 0.35 nM, the koff came out at 0.0011 s⁻¹ and the kon came to 3.16e+06 M⁻¹ s⁻¹. In the test with C4b (human) [6], the Kd is 17.1 nM, the dissociation rate constant (koff) worked out at 0.000805 s⁻¹ and the kon stood at 47000 M⁻¹ s⁻¹.
